Results reported in the supplement of paper PMC12042874.
± gives the uncertainty stated by the source.

Assay: amyloid nucleation score (Sup35N fusion, yeast selection) (log enrichment); library NNK3; higher = more nucleation; inactive = no reads after selection
In short: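 Sup35N fusions to peptides of 20 random codons were expressed in psi-negative yeast, induced 24 hours with 100 μM copper sulfate, and grown 7 days at 30°C on medium lacking adenine and uracil. Input and output plasmid inserts were sequenced by Illumina. The nucleation score is the DiMSum log enrichment of output over input reads, centred on the mode score of non-aggregating sequences. Sequences with under 100 input reads were excluded.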

Substance	amyloid nucleation score
CRFFSGFLRPRSNVGGNRYS	inactive
YGRLCDALKGSWYCSIYHGS	1.79 ± 0.074
KINGIDSSGMCAISLIKKGA	inactive
RVARMFGEY	inactive
HVYLAQGL	inactive
SGSGWKICRNSHAGAVFYSR	inactive
NILMAGDMHSRA	inactive
LCWTVVIHVRTAVRIWLTSR	inactive
YVKGRSETCPKDRIKGVRSD	inactive
VMHGFVGAAKSNWKNPWHRA	inactive
CISKCLVNNV	inactive
GLSRCSPWKASSDDRRRLSD	inactive
LVDHLFDMITMHDGPCQLHQ	inactive
WGILW	0.482 ± 0.15
ALCMIYFW	2.79 ± 0.076
YVIICYST	-0.539 ± 1
TKVFS	inactive
KGCVRSGQIWLRCIWSQYP	inactive
QCMIYYTDKLLKYSSCTRTM	inactive
EIQVV	inactive
DPFRLLGEY	inactive
VMYSGFRVILF	0.751 ± 0.15
EVFARIVPRDMMLFLILIIP	inactive

Substance	amyloid nucleation score
MSILMMSL	inactive
RNGRKYSIWLVGVSH	inactive
RRMLTRTFRG	inactive
IENRFVSFLYL	1.88 ± 0.075
LIRMFISVMSYCMTVGLGMG	inactive
NVFQVALRNSLSMLGSGMRM	inactive
LNKVIRCEAYRCKTMN	inactive
FSVFN	inactive
IKFVIIRITHSREKFSVPLS	inactive
GFEDSSIT	inactive
KLDLQSSFLFLGSVHV	inactive
CTNCNAKAYPWGTVSMPREW	inactive
FKQMDTLTHISFSKAIMPSF	inactive
DYGATGHC	inactive
YRTDDERCDMTTVLYSYMEY	inactive
YWLIRDLWRGRGS	inactive
AGGCFISARSIRNCAHMLSR	inactive
MSFRIAKDIMCLVGFSLRCT	inactive
LDFRLFGFPDKNEHYGGEYK	inactive
KDWQTIYQLRSVTFFDLLVV	inactive
SICCMWMWMACAIKFQNTRR	-0.519 ± 1.9
GPHNFGEMSGFVDGTRRSGV	inactive
RYGDWLHHS	inactive

Substance	amyloid nucleation score
SLSIASVWWDPGTHVFLALW	inactive
KERIQCYMRLPRFIN	inactive
RSDMTAHDTNDAVQLEPSVE	inactive
ESLNGLNRSHA	inactive
GTFVFTYMWFNIYRQNDFRN	inactive
NLFLRFIVTLWDRFCPYFYQ	inactive
LLGRKRA	inactive
VKRGFEWFCSMTHFNTSCIR	inactive
MIFNHMNKL	inactive
CNMGYSIFVFILNLSPV	1.99 ± 0.09
RRGRPVLCRLHPGRWLRSRR	-0.401 ± 1.8
AVQHIVEFILICQMFTYTHH	inactive
ETWLKTINRLGLNRSHLSIL	inactive
FMYDYLAHLPGDFVNNSCRR	inactive
GMVNDYVVTVNFPCFWLG	2.19 ± 0.079
EICSSNKRQRLKRVMEVIFC	inactive
LIFFRVVSQLFKFSLRDLPL	inactive
FMCLFMNHYLKFGTSFPGRG	0.974 ± 0.14
KFHIFFCSFCVPPE	3.17 ± 0.082
NLSSCIFVVS	inactive
VINCSAHTEFRGLNFRVTCT	inactive
WLARTRRVVLRNLVLAVTCI	inactive
CQIKNGLDNQKTDYNSSPF	inactive

Substance	amyloid nucleation score
TKIEVNS	inactive
NKEMIFANYSAGRRYVRYST	inactive
IVTNDVCVFSVQYSRFVVRL	0.416 ± 0.23
SNHSRYYRNHDVFWYNIEVG	inactive
FHRTEGCECVASLKVARGVV	0.223 ± 0.31
NNTLV	inactive
LTWYWKNGCSLLPLIGLSGN	inactive
SAACLIMCVLLSILVQIFGM	inactive
YWLRVIKRHRDRHR	inactive
RPWHPLLTSDVVNCWLKIRV	inactive
ICYTLVTN	inactive
DGLYSTNQRSIAPHLTQPID	inactive
RVDRLALLCSTSGINSDFGR	inactive
FRGCYRFELLSDTCISRELV	inactive
SYWLCEVMTLYFFNCFYVLG	inactive
YMRDCYSNSGWNIYRSKRLS	inactive
NYVICVYFMAGVSACMTLLV	inactive
EQGSSLHRHNHFVTLMGCRG	inactive
LSLNSEVFGLSSTSNTVPFD	inactive
VSRYGYCCRRIYAELHGFPD	inactive
DVVSLGIMQKGSWSGCML	inactive
NLAAEASVLVYEDELGCRHG	inactive
MAPPNIWFQCQ	inactive

Substance	amyloid nucleation score
MIIAFFCDYNGVEG	inactive
FIMLQSPTNSSQILMPTQFT	inactive
TWRFVPRPLLVCMLYRYLCK	inactive
SLMLLRRTAVRPHWWKLRPN	inactive
VLFRKCQCVRSHLI	inactive
TPYGRIFWADDIFNSVAICL	inactive
CYSGCEWSTYMLMGVLKVVS	inactive
TILGDFVFVFILKVCFTYHR	-0.806 ± 1.3
HSFFVVQAS	inactive
DCIYRDVCFNFTYMCKVNAQ	inactive
VFYIHIREVTSVVIILVWCS	inactive
NGLLNRQSTSWWSTLNYCGD	inactive
GFGYCVWQESGNLRGCRWLW	0.5 ± 0.39
YSCFFIPWRVGAYRTDNFRS	inactive
NKIVNECWHLICSFKLGNLQ	inactive
LLCRE	inactive
LVSCK	inactive
NPDCSQTMARGLRNSLVFLQ	inactive
YIINARPYVVVTDGLKDETA	inactive
IVYMAATKLMVVNSLCNGRG	2.04 ± 0.09
TCQILRYIRSLLRMLIWCYY	-0.418 ± 0.8
FIYSGYTSVNKILGFYNHDS	0.95 ± 0.16
DRIVACKLKTGYTQGMVPLL	inactive

Substance	amyloid nucleation score
WLFNYRILCLSVMWFTKSIE	inactive
GQKCHLGCAFGCDEYTWAKG	inactive
WMFRSAVFYGYVYALGCMRS	0.924 ± 0.22
FWSHLTLTSSSFKFGTVSR	inactive
ACYITTFLGADSVVEYQNDE	inactive
SLIFFL	1.35 ± 0.12
VRVELNYKMMHMSHRIMY	1.52 ± 0.073
LYYSWKKEYQFIWVVHTFAK	inactive
SPLTARMADRRDTA	-0.134 ± 1.4
NMYLSMSLIFNTNYLPGMIS	inactive
ISRLR	inactive
CVSSLIAKMGIVGCDGCYKG	inactive
FYNFSTCVTRGWYVFMRC	inactive
SEICF	inactive
YGQGSGGIGRRVAGQDCNLI	inactive
MGGVCMSMS	inactive
RRPVYIIASNLDYMQTSCIT	inactive
PSVIRNAYYAY	inactive
PLIWCWKIVGRAWFAESRIL	inactive
MMNVWLAFAPGML	0.9 ± 0.14
PVYGSLCRFYGVRYGR	inactive
LYETSRSFPH	inactive
ILDWG	0.886 ± 0.15

Substance	amyloid nucleation score
WWSKRLKRLVNCGLR	inactive
RVLATFCG	inactive
YLTVCRGRNTEGYGWEVNS	inactive
ERSHVCCGNDRYTLLWRVYS	inactive
GMMICMISWWVWNFACVDIR	inactive
PSTDVILSANWDDRRSGLYG	inactive
TGFLGWDACGALRIFLTVRW	inactive
EENTVSSTAIKNVVYSQFQV	inactive
YFFVSWFRCMGPILSFTRVV	inactive
TEYVMSQNHLKQW	inactive
LVHDLDLCSPGVSYQKSRMS	inactive
LCKSMRNDSLDYFLHCPGML	inactive
SVIASRSLIYD	inactive
LHIHRFWQQPHTNAGRIPHP	inactive
LNFDNRNFFGDMSAESATPF	inactive
MCGCARLFVSLSATAKTNP	-0.003 ± 1.1
AGNGPLSIYPMILMWMRVGR	inactive
SFLFA	inactive
IVDCLFK	inactive
SGLWHRILCSGRPTGYTQWV	inactive
NFGVMLGVNTLSMSSRVVLG	0.6 ± 0.26
